Assay results: patent US9750814B2, “Polypeptides to inhibit epstein barr viral protein BHRF1 and B cell lymphoma family proteins” (priority 2014, dated 2017)

T1: Bcl-B (Homo sapiens, UniProt Q9HD36)
T1 construct: Bcl-B a.a; 11-175 (NP_065129.1); made in house; host or cells: E. coli BL21* (DE3)
T1 sequence (Q9HD36 11-175): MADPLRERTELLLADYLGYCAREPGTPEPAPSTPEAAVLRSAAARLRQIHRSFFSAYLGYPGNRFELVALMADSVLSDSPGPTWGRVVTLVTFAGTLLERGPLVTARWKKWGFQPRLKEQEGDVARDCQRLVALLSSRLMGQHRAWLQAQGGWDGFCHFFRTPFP

T2: Bfl-1 (Homo sapiens, UniProt Q16548, C4S)
T2 sequence (Q16548 1-153 C4S): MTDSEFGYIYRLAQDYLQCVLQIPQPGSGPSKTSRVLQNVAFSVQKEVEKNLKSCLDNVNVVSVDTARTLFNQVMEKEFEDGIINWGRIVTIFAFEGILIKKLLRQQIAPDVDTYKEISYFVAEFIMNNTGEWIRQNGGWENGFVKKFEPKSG


Legend:
BHRF1 = BHRF1 (Epstein-Barr virus, UniProt P03182)
Experimental: Proteins (20 nmol each) were injected in a 200 μl loop in line with a Superdex-75 10/300 column (GE Healthcare) and separated with running buffer (20 mM Tris-Cl pH 7.5, 150 mM NaCl, 1 mM DTT) at room temperature.

Mcl-1 = target: T3, Mcl-1 (Homo sapiens, UniProt Q07820); assay: Bio-layer interferometry (BLI), immobilized Mcl-1; assay type: binding; conditions: BLI; for Kd: lower bound in μM
T3 construct: Mcl-1 a.a; made in house; host or cells: E. coli BL21* (DE3)
Description: (§1) 11-175 (NP_065129.1), Mcl-1 a.a. […] For later BLI analysis, Bcl-B and Bfl-1 were genetically fused to C-terminal maltose-binding-protein with an avi-6his tag for improved solution properties. Codon usage was optimized for E. coli expression. […] The genes for individually-tested designed proteins were assembled from oligos (Hoover and Lubkowski, 2002) and cloned into pET29b (NdeI-XhoI sites) with C-terminal 6his tags for purification from E. coli, or cloned into PETCON (NdeI-XhoI sites; (Fleishman et al., 2011)) for yeast surface expression. Alternative tags were added using PCR methods. Point mutations were made by overlapping PCR (Procko et al., 2013). Error-prone PCR with an average error rate of 1.3 amino acid substitutions per clone used GeneMorph II Random Mutagenesis (Agilent Technologies).
(§2) Purified avi-6his-tagged ligands (20 μM) in reaction buffer (250 mM potassium glutamate, 20 mM Tris-Cl [pH 7.5], 50 mM bicine [pH 8.3], 10 mM ATP, 10 mM MgOAc, 100 μM d-biotin) were enzymatically biotinylated with 150 U/μl BirA (Avidity) at room temperature overnight, followed by purification with NiNTA-agarose and SEC. Biotinylated ligands were stored at 4° C. in 150 mM NaCl, 20 mM Tris-Cl (pH 7.5), 1 mM DTT, 0.02% sodium azide.
(§3) Data were collected on an Octet RED96 (Forte Bio) and processed using the instrument's integrated software. […] Biosensors were dipped in solutions containing the analyte of interest to measure association, and transferred back to empty binding buffer for monitoring dissociation. Kinetic constants were determined from the mathematical fit of a 1:1 binding model.

[1] = system: mitochondria isolated from Ramos-AW (EBV-positive) and Ramos (EBV-negative) cells; assay: Cytochrome c release from isolated mitochondria, Ramos-AW versus Ramos; assay type: cell-based, human; conditions: 30 min
Experimental: (§4) Cells (˜10^9) were equilibrated in 5 ml of homogenization buffer (0.25 M sucrose, 1 mM EGTA, 10 mM HEPES/NaOH, 0.5% BSA, pH 7.4, Roche Complete protease inhibitors) for 5 min. Samples were kept on ice or at 4° C. until assayed. Cells were homogenized under N2 pressure (400 psi) in a steel disruption vessel (Parr Instrument Company) for 10 min, then centrifuged (750 g) for 10 min to remove intact cells. Supernatant was centrifuged again (12,000 g) for 12 min to collect mitochondria. The pellet was resuspended in 300 μl wash buffer (0.25 M sucrose, 1 mM EDTA, 10 mM Tris/HCl pH 7.4). Proteins at the indicated concentrations were incubated with mitochondria (25 μg mitochondrial protein based on BCA assay, Sigma) in 50 μl final volume of experimental buffer (125 mM KCl, 10 mM Tris-MOPS pH 7.4, 5 mM glutamate, 2.5 mM malate, 1 mM K-PO4, 10 μM EGTA-Tris pH 7.4) for 30 min at room temperature. Reaction solutions were centrifuged (18,000 g) for 10 min at 4° C. and cytochrome c release was quantified using a Cytochrome c ELISA kit (Life Technologies). Complete cytochrome c release was quantified by treatment with 0.5% Triton-X100.
(§5) Ramos, Ramos-AW, Daudi, Raji, DOHH2, JVM-2, and JVM-13 were grown in RPMI 1640 containing L-glutamine and 25 mM HEPES supplemented with 1% penicillin-streptomycin (GIBCO) and 10% fetal bovine serum (FBS, Invitrogen). […]

[2] = system: mitochondria from six EBV-positive and four EBV-negative cancer lines; assay: Cytochrome c release from isolated mitochondria, panel of cancer lines; assay type: cell-based, human; conditions: 10 μM
Experimental: as §4, §5

[3] = assay type: physicochemical; conditions: for unfolding behaviour in guanidinium hydrochloride: loss of CD signal at 222 nm
Experimental: CD spectra were recorded with a Model 420 spectrometer (AVIV Biomedical) or a J-1500 Circular Dichroism Spectrometer (JASCO). Unless stated otherwise, proteins were at 20 μM in PBS and data were collected at 25° C.

Bfl-1-dependent MEF line = assay: Long-term survival (colony) assay, Bfl-1-dependent MEFs; assay type: cell-based, mouse; conditions: seven day colony survival, doxycycline-induced expression
Description: Mouse embryonic fibroblasts were generated from E13-E14.5 embryos derived from CreERT2/Bcl-x^fl/fl/Mcl-I^fl/fl C57BL/6 mice (Kelly et al., 2014) and immortalized (at passage 2-4) with SV40 large T antigen. Retroviral expression constructs in the pMIG vector (Murine Stem Cell Virus-IRES-GFP) expressing each FLAG-tagged pro-survival protein were transiently transfected using LIPOFECTAMINE™ (Invitrogen), into Phoenix ecotropic packaging cells. Filtered virus-containing supernatants were used to infect the MEFs by spin inoculation as previously described (Lee et al., 2008). Cells stably expressing each pro-survival protein were selected by sorting GFP^+ve cells 24 hours after spin inoculation and protein expression verified by Western blotting using an anti-FLAG antibody. Following verification of exogenous pro-survival protein expression, each cell line was treated with 1 μM Tamoxifen (Sigma-Aldrich) to enable deletion of endogenous Mcl-1 and Bcl-xL. Deletion of endogenous Mcl-1 and Bcl-xL was shown by Western blotting using anti-Mcl-1 (Rockland Clone, 600-401-394) and anti-Bcl-xL (BD Transduction Laboratories Clone 44/Bcl-x) antibodies. Cells were maintained in DME Kelso medium supplemented with 10% (v/v) fetal bovine serum, 250 mM L-asparagine and […] 2-mercaptoethanol.
Inducible αMCL1 and αBFL1 constructs were generated in a lentiviral vector described in Aubrey et al. (2015). […]

colon cancer cell lines = assay: Long-term survival assay, colon cancer cell lines; assay type: cell-based, human; conditions: long-term survival assay
Experimental: Inducible αMCL1 and αBFL1 constructs were generated in a lentiviral vector described in Aubrey et al. (2015). Ligand expression is linked via the T2A peptide to mCherry™ fluorescent reporter protein. […] Viral supernatants were then filtered prior to target cell transduction. […] For infection of MEFs and colon cancer cell lines, equal volume of virus-containing supernatant was added to target cells pre-incubated with 10 ng/μL polybrene, and centrifuged at 2500 rpm for 2 hours at 32° C. Following spin inoculation, cells were then incubated overnight at 37° C. Cells expressing the doxycycline-inducible constructs were then selected by sorting mCherry^+ve cells. MEFs were maintained in DME Kelso medium supplemented with 10% (v/v) FBS, 250 mM L-asparagine and […] 2-mercaptoethanol. Colon cancer cell lines were maintained in DMEM/F-12 supplemented with 10% (v/v) FBS.
MEF and colon cancers were seeded in 6-well tissue culture plates in 2 mL culture media at 150 cells per mL. The next day and every 48 hours following, doxycycline was added at a final concentration of 1 μg/mL to each well, while nothing was added to control wells.

Bcl-B = target: T1, Bcl-B; assay: Bio-layer interferometry (BLI), immobilized Bcl-B; assay type: binding; conditions: lower bound in μM
Description: as §1, §2, §3

Bfl-1 = target: T2, Bfl-1; assay: Bio-layer interferometry (BLI), immobilized Bfl-1; assay type: binding; design: Bfl-1 a.a; made in house; host or cells: E. coli BL21* (DE3); conditions: lower bound in μM
Description: as §1, §2, §3

Bcl-2 = target: T4, Bcl-2 (Homo sapiens, UniProt P10415); assay: Bio-layer interferometry (BLI), immobilized Bcl-2; assay type: binding
T4 construct: human Bcl-2 a.a; made in house; host or cells: E. coli BL21* (DE3)
Description: as §1
as §2, with “Biotinylated ligands were stored at 4° C. in 150 mM NaCl, 20 mM Tris-Cl (pH 7.5), 1 mM DTT, 0.02% sodium azide.” left out
Data were collected on an Octet RED96 (Forte Bio) and processed using the instrument's integrated software. […] Kinetic constants were determined from the mathematical fit of a 1:1 binding model.

T3 sequence (Q07820 172-327): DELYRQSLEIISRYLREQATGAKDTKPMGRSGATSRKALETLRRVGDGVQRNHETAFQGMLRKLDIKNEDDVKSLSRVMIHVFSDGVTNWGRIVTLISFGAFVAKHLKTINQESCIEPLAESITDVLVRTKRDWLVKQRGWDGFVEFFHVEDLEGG
Chain of BHRF1 (P03182 1-161): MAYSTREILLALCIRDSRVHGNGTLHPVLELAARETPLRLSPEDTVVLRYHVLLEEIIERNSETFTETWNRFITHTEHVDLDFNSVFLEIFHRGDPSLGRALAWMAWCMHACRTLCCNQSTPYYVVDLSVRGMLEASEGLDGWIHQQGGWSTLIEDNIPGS
T4 sequence (P10415 1-207): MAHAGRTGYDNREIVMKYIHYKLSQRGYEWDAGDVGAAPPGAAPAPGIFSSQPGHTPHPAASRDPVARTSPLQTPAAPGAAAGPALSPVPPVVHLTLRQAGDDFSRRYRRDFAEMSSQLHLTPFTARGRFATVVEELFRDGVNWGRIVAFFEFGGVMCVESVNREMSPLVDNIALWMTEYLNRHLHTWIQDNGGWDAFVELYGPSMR

Row | Molecule | protein stability relative to the original computational design [3] | Kd (Mcl-1) [µM] | Kd (Bcl-B) [µM] | Kd (Bfl-1) [µM] | further results
1 | BbpD04.2: BbpD04.1 with four mutations: I21L, Q79L, I84Q and H104R (protein) ADWKKVLDKAKDIAENRVRELKQKLEEFYKEAMKLDLTQEMRRKLMLRWIAAMLMAIGDIFNAIRQAKQEADKLKKAGLVNSQQLDELKRRLEELKEEASRKCRDYGREFQLKLEY |  |  |  |  | elution by SEC when mixed with BHRF1 (BHRF1; in solution): higher molecular weight (MW) complex; state by SEC after purification from E. coli (BHRF1; protein alone): monodisperse and monomeric
2 | BINDI N62S: BINDI variant with N62S (protein) ADPKKVLDKAKDQAENRVRELKQKLEELYKEARKLDLTQEMRRKLELRYIAAMLMAIGDIYSAIRQAKQEADKLKKAGLVNSQQLDELKRRLEELKEEASRKARDYGREFQLKLEY |  |  |  |  | change of affinity for Mcl-1 relative to BINDI (Mcl-1): diminished six-fold; cytochrome c release, Ramos-AW compared with Ramos mitochondria [1]: enhanced apoptotic activity against EBV-positive Ramos-AW; cytochrome c release ([2]; Raji and JVM-2): low levels of cytochrome c release; cytochrome c release ([2]; Ramos-AW, Daudi, Granta 519, JVM-13): high cytochrome c release
3 | M-CDP05: SEQ ID NO: 32; target Mcl-1 (protein) ADPKKVLDKAKDQAENRVRELKQKLEELYKEARKLDLTQEERHRLETKALSALLAAIGDILDAIMQALQEAAKLKKAGLVNSQQLDELKRRLEELRKEASRKARDYGREFWLKLDY |  |  |  |  | unfolding behaviour in guanidinium hydrochloride [3]: unfolded over broad denaturant concentration ranges
4 | FINDI: SEQ ID NO: 6; target Bfl-1 (protein) ADPKKVLDKAKDQAENRVRELKQKLEELYKEARKLDLTQEKRKKLEVATLGAVLAAHGDILNAIMQAKEEADKLKKAGLVNSQQLDELKRRLEELKEEALRKASDYGNEFHLKRRY | slightly to moderately decreased |  |  |  | decrease in survival (Bfl-1-dependent MEF line): 85±6%; decrease in RKO cell survival (colon cancer cell lines): 63±4%
5 | WINDI: SEQ ID NO: 265; target Bcl-w (protein) DPKKVFDELKDRAENNVRRLKQKLEELYKEARKKDLTQEEREKLKTKYKTAMQLAALAAEGDIMNALLKARKLHKNGQVNEQQLEELARRLMELAKEAFQKAKDYANEFKYKLEY |  | > 25 | > 25 | > 25 | 
6 | X-CDP07: SEQ ID NO: 47; target Bcl-xL (protein) ADPKKVLDKAKDRAENVVRKLKKELEELYKEARKLDLTQEMRDRIRLAAIAARIAAFGDIFHAIMEALEEARKLKKAGLVNSQQLDELKRRLEELDEEAAQRAEKLGKEFELKLEY |  |  |  | > 50 | 
7 | M-CDP02: SEQ ID NO: 29; target Mcl-1 (protein) ADPKKVLDKAKDQAENRVRELKQELEELYKEARKLDLTQEERRKLEESYIAAMLRAIGDIFNAIMQAKNEADKLKKAGLVNSQQLDELRRRLEELRKEASLKAEDYGREFQEKLEY |  |  |  |  | unfolding behaviour in guanidinium hydrochloride [3]: unfolded over broad denaturant concentration ranges
8 | XINDI: SEQ ID NO: 4; target Bcl-XL (protein) ADPKKVLDKAKDRAENVVRKLKKELEELYKEARKLDLTQEMRDRIRRTAIAARFQAHGDIFHAIKHAKEEARKLKKAGLVNSQQLDELKRRLRELDEEAEQRAEKLGKEFRLKLEY | slightly to moderately decreased | > 50 | > 50 | > 50 | 
9 | 2-INDI: SEQ ID NO: 3; target Bcl-2 (protein) ADPKKVLDKAKDEAENRVRELKQRLEELYKEARKLDLTQEMRQELVDKARAASLQANGDIFYAILRALAEAEKLKKAGLVNSQQLDELKRRLEELAEEARRKAEKLRDEFRLKLEY | slightly to moderately decreased | > 75 | > 75 | > 75 | fold weaker affinity for the next tightest binding BCL2 family protein (target Bcl-2) (Bcl-2): > 2,000 fold
